Source: patent US20210284746A1 (NGM BIOPHARMACEUTICALS, published 2021)

Target: T1, soluble human GCGR extracellular domain (human, UniProt P47871 26-136, limits assumed)
T1 construct: also called soluble GCGR; glucagon receptor extracellular domain
Experiment: SPR (Biacore), purified antibody re-tested; format as described for the screen: antibody captured by anti-mouse Fc, soluble human GCGR extracellular domain as analyte, 25 C
Description: In addition, supernatants were screened for binding to human GCGR using a Biacore SPR system. Briefly, anti-mouse Fc antibody (Sigma-Aldrich) was immobilized on all four flow cells of a CM5 chip using amine coupling reagents (GE Healthcare LifeSciences). Hybridoma supernatants were diluted three-fold with PBS-P buffer (PBS containing 0.005% P20-PBS-P) and injected for 30 seconds over flow cells 2, 3 and 4 to capture the test antibodies and using flow cell 1 as a reference. The next step was an injection of soluble human GCGR extracellular domain (100 nM in PBS-P buffer) at a flow rate of 50 μL/min and monitoring of the binding kinetics at 25° C. Kinetic data were collected over time and fit using the simultaneous global fit equation to yield affinity constants (KD values) for each antibody.

T1 sequence (P47871 26-136 limits assumed): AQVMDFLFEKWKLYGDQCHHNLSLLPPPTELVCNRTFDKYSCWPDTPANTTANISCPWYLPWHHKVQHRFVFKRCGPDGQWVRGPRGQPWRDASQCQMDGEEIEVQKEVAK

Binder | Kd [nM]
6B5 (antibody, V domains shown, Mouse hybridoma antibody, purified; also called anti-GCGR antibody 6B5) VH: QVQLQQSGTELVRPGTSVKISCKASGFTFTNHWLGWVKQRPGHGLEWIGDIYPGGYYINYNEKFKGKATLTADTSSSTAYMQLSSLTSEDSAVYFCARHTNYGSDYWGQGTTLTVSS VL: DVLMTQIPLSLPVSLGDQASISCRSSQSIVDSYGNTFLEWYLQKPGQSPKLLIYKVSNRLSGVPDRFSGTGAGTDFTLKISRVEAEDLGIYYCFQGSHVPWTFGGGTKLEIK | 0.2
14F4 (antibody, V domains shown, Mouse hybridoma antibody, purified; also called anti-GCGR antibody 14F4) VH: QVQLQQSGAELVRPGTSVNMSCKATGYTFTNYWIGWVKQRPGHGLEWIGDIFPGGFYSNYNEKFKGKATLTTDTSSSTGYMQLSSLTSEDSAIYYCARIWDRGFDYWGQGTTLTVSS VL: DVLMTQSPLSLPVSLGDQASISCRSSQSIVDSYGNTYLEWYLQKPGQSPKLLIYKVSNRFSGVPDRFSGSGSGTDFTLKISRVEAEDRGLYYCFQGSHVPYTFGGGTKLEIK | 0.6
13G9 (antibody, V domains shown, Mouse hybridoma antibody, purified; also called anti-GCGR antibody 13G9) VH: QVQLQQSGAELVRPGTSVKISCKASGYTFTNYWLGWVKQRPGHGLEWIGDIYPGGDYNNYNGKFKGKATLTADTSSSTAYIQLSSLTSEDSAVYFCVRSDDGYSWGQGTTLTVSS VL: DVLMTQTPLSLPVSLGDQASISCRSSQSIVDSYGNTYLEWYQQKPGQSPTLLIYKVSNRFAGVPDRFSGSGSGTDFTLKISRVEAEDLGVYYCFQGSHIPWTFGGGTKVEIK | 0.2
